Data on 18 sequences can be found in the DeepSol protein solubility set.

This data set is described as follows: soluble on expression in E. coli; label from the status in PepcDB or PDB records.
As for “MSLKKDYGSQEDFTQVWNTTMKGLKCCGFTNYTDFEDSPYFKENSAFPPFCCNDNVTNTANETCTKQKAHDQKVEGCFNQLLYDIRTNAVTVGEGHHHHHH”, the “soluble on expression in E. coli” value is recorded as “soluble”.

As for “MSLKKMMDSTTVIITTTDNRVLLQKRDENPDIEYSGYYSLVSGYLEEEETPLDGIIRELKEEFEHKKSQKVHFSSITYLGSEYRADYDRWEYIHHTYLMDDAADIRILEGESFVLLDMDECLRLENLAPHHKLFLLKYRAGLCKIDVREQSKKMFDEITVRDLIKVESVGDVKNYSLLEAGTGFVIGEDTTLSASIPAVEAAKYIGFLQFVPKVLRGNHYHFRKVEYMLILQGRMHATFQKYDDSEAVIEEIWEKGDLVRTLPGCVHTLTALGESNVLTIEFSPQPYVARDVLMNDKEGHHHHHH”, the “soluble on expression in E. coli” value was “soluble”.

As for “MSLKKPALKYCGIRSLKDLQLAAESQADYLGFIFAESKRKVSPEDVKKWLNQVRVEKQVAGVFVNESIETMSRIAKSLKLDVIQLHGDEKPADVAALRKLTGCEIWKALHHQDNTTQEIARFKDNVDGFVIDSSVKGSRGGTGVAFSWDCVPEYQQAAIGKRCFIAGGVNPDSITRLLKWQPEGIDLASGIEKNGQKDQNLMRLLEERMNRYVSISEEGHHHHHH”, the “soluble on expression in E. coli” value is given as “soluble”.

In the case of “MSLKKYQLVIVGYGGMGSYHVTLASAADNLEVHGVFDILAEKREAAAQKGLKIYESYEAVLADEKVDAVLIATPNDSHKELAISALEAGKHVVCEKPVTMTSEDLLAIMDVAKRVNKHFMVHQNRRWDEDFLIIKEMFEQKTIGEMFHLESRVHGANGIPGDWRHLKAHGGGMVLDWGVHLLDQLLFLVDSNVKSVSANLSFALGDEVDDGFVTFITFENGITAQIEVGTTNFIKLPRWYVKGTEGTGIIHDWDLSGEIVKPTALAKTSEPTPIKAGQGLTKTMAPPSEEATNTLSLPAPAKLAPSFYNNFVDVLNNTSEPIVQNEEVYQVLKLIEAIFEAAETNRTVHSIEGHHHHHH”, the “soluble on expression in E. coli” value is “soluble”.

Consider “MSLKLGIIGSGKIVHDFLTAIDQINNLDVVAISSTKRSENIAQELAKKYSINKTYTDNDELMSDPDVDTVYVAVPNFLHYQVAKAALEHGKNVICEKPFVDSTNEAKKLKQLADEKNLIIVEAITNIYLENFKRIQREIENIAPIHIVSLNYTQYSSRYDDFLKGKIAPVFDPAKDGGTLMDLNIYNIHLVSALFGLPDKVKYYANMQKGVDTSGILHLSYPDKQAALIAAKDSYVTPRSFIEGEKGSIYIDGSTGELNNFTIEMRDQKPKRYNLNKYSHRMASEFNAFVEMIDNHDKVKADEAFVNTLESMQILTTAKNSEEGHHHHHH”, for which the “soluble on expression in E. coli” value is given as “soluble”.

For the sequence “MSLKLIGIVGSNADSSYNRLLLQYIGKEFYKMFDLEILEIKDIPMFNQSKDQTNSVLIQNMNRKILQADGVIIATPEHNHTIPAGLKSVLEWLSFKIHPLENKPVMIVGCSYYDQGTSRAQLHLRQILDAPGVNAIVMPGNEFLLGKAKEAFDENGNLIAEGTRQFLESTLQKFVEFIDVISKLEGAKPKDLPEDLHAKGTIETTIEGVDMAADDWVEQAAEAVQAVEGDTYVKLDRGILTVDQLNYFLKSMPMELTYADSNNQFLYYNKKMAAEEMFAKRQPGQVGNPLANCHPPKALKNVEWVIQQLRSGKTDAIRVHVPMHGPDTYVVHNYQAMYDDNGNYAGINEYILDFKPIVDWYLKQTGQELVGGKNVDAVSGASKKEAPETADSVSSASVHEEESATEKPTVDSVSSASIKEEGHHHHHH”, the “soluble on expression in E. coli” value is recorded as “soluble”.

As for “MSLKLPVPSPMRLAVTHEGRSIIYIPSPEYAVASGRLEPAWLEVFYNPAMEFNRDVSVVAASALRRTGLLTRSGVAFDAHAGVGVRGVRYAVEAGYVKVIMNDINPKASMLAALNARANGLEPGSYMIFNKESNSLMFHLSRERPTPVSLIDIDPYGSPAPFVDAALALSGKGTVVAMTATDLAVLEGGKARAAVRRYMLRSVSKTPVSKETGLRVLLGYVARVAAAHDKAVKPLLAYYADHYYRVYVAVERGARRSDSMLEENLGRLVYCPETGVALALSYAEDPASACGGSYVVAADPAWIGSLGDQAFLEAMLNIAVEAVWLGTRPRVEKLLNTLHGEAPLSPRSIYVSLTSVASKARVNTPKKSKVVELLRSMGYRAVATHFSGEGVRTDAPWGEVLEAVVKLGSSGEGHHHHHH”, the “soluble on expression in E. coli” value is “not soluble”.

For the sequence “MSLKLVKLETFSTEFVCFVRATAEDGAQGWGQVAPYYADITAQVLHRQVAPYALGMACEDIDAMLDIVRDREHKFPGSYLRRAMGGVDTALWDMHGRRAGKPVCVLIGGTPGPVRAYGSSMKRDITPRDEAARLVRLRDEQGFDAFKFRIGAEVGRDRDEWPGRTEEIVPTMRRAMGDDVALLVDANSCYSPARAIEVGRMLEQHGISHYEEPCPYWEFAQTKEVTDTLDLDITGGEQDCLMERWQTMIADRVVDVLQPDICYLGGLSRTLRVARMAEAAGMPITPHAANLSMVTLFTMHLLRAIPNAGKYLEFSIEGLDYYPWQQGLFTSDPYRIEEGHATVTDAPGWGVDVNPDWLARSDYRVSELGEGHHHHHH”, the “soluble on expression in E. coli” value is listed as “soluble”.

In the case of “MSLKMANPKYKRILIKLSGEALAGERGVGIDIQTVQTIAKEIQEVHSLGIEIALVIGGGNLWRGEPAAEAGMDRVQADYTGMLGTVMNALVMADSLQQVGVDTRVQTAIAMQQVAEPYVRGRALRHLEKGRIVIFGAGIGSPYFSTDTTAALRAAEIEADAILMAKNGVDGVYNADPKKDKTAVKFEELTHRDVINKGLRIMDSTASTLSMDNDIDLVVFNMNQSGNIKRVVFGENIGTTVSNNIEEKEEGHHHHHH”, the “soluble on expression in E. coli” value is on record as “soluble”.

“MSLKNIVFDFGGVIVDIDRDKAVQAFIKLGLADADTRLDKYHQTGIFQELEEGKLSADEFRKQLGDLCGRELTMEETKQAWLGFFNEVDLRKLDYILGLRKSYHVYLLSNTNPFVMSWACSPEFSSEGKPLNDYCDKLYLSYQLGHTKPAPEIFDFMIKDSHVIPSETLFVDDGSSNIHIGKELGFETFQPENGADWRQELTVILNSEGHHHHHH”: the “soluble on expression in E. coli” value is “soluble”.

As to “MSLKNREWYKDAVFYEVLVRAFYDPEGNGVGSLKGLTEKLDYIQWLGVDCIWIPPFYDSPLRDGGYDIRNFREILPEFGTVDDFVELIDHAHRRGLRVITDLVMNHTSDQHAWFQESRRDPTGPYGDFYVWSDDPTLYNEARIIFVDTEESNWTYDPVRGQYFWHRFFSHQPDLNYDNPAVQEAMLDVLRFWLDLGLDGFRLDAVPYLFEREGTNGENLKETHDFLKLCRSVIEKEYPGRILLAEANQWPQDVVEYFGEKDKGDECHMAFHFPLMPRIFMGVRQGSRTPISEILANTPEIPKTAQWGIFLRNHDELTLEMVSDEERSYMYSQFAMEPRMRANVGIRRRLSPLLEGDRNQLELLHGLLLSLPGSPVLYYGDEIGMGDNIWLHDRDGVRTPMQWSNDRNGGFSKADPERLYLPAIQNDQYGYAQVNVESQLNRENSLLRWLRNQILIRKQYRAFGAGTYREVSSTNESVLTFLREHKGQTILCVNNMSKYPQAVSLDLREFAGHTPREMSGGQLFPTIAEREWIVTLAPHGFFWFDLTADEKDDMEEGHHHHHH”, the “soluble on expression in E. coli” value was “soluble”.

Take “MSLKPWLITPERLTSEQIGLLDHFFDRGLERLHLRLPSAGEEDYSQVIEAVAACYRRRIVVHDHPRLVGRYGLCGLHLPERVWKGMTDRPQLPDGCTVSASCHAIEDIESFPFRLDYCFLSPVFDSLCKVGYAGRFSPDSLGDRLQRLHLPVVALGGITPDRLPQLRRAGFASAAALGYVWLVEGRELMRWQELCTPAVICVGGVDPSAGAGITADVRTAENMGVRAYTVATAITFQGSGSYRGERWVDSADIIRQIESLSAEMEPAVAKIGLIRDSDTLSLVVDCLKKVFPSIRIVWDPVLRASADSSAGQADRFNLEDITALSRIDFITPNLPEARHLLGCEPDDETLLDFYRRSGVGLVLKGGHAGESVVTDRIVYDGRCEALRLLRGGTGKHGTGCAHSTAFAAALALEQEPFTAAGMAQLYVSRLRERASGLLAMHKDLPVDPVVRLMSEIDLQFITHRQPDLSELEEAEAVCRIGVRWVQLRMKEASDEEMLHTACAVKAVCRHHGALFVVNDRVEIARQVDADGVHLGKEDMAIVEARRILGSNKIIGRTCNTMEDVRRAYAEGADYVGIGPYRYTETKQRLAPVLGLEGYKAIAACMQAEGIRLPAFAIGGIEDADIPLIRDCGIGGIAVSGSLIRKIKKEGHHHHHH”: the “soluble on expression in E. coli” value is “soluble”.

Turning to “MSLKRFYSLFALPLITAATWANEPLPDRQTELPAVKKENHGEYLQPRDLSKIPNTAFGDQVKRGYSLFVNSQQMRGKYVGNEQNCVNCHMEAGRKANAAPLWAAYMAYPAYRKKNDRVNSYADRIQGCFEYSMNGKAPAYDSPEIVALSAYAYWLAMGGLLDSYGMNDEAVPELDIKALQVGGKAQDFPLPDAIAQALPVKERGNLAGRGYPKIAAPKQEPSPERGALVYEKNCETCHRADGSGIKGTDGHSYIPPLWGEFAYNWGAGMHRINTAAYFIYENMPLGKSVQLTEQEAWDVAAYINSHERPQDPRFKGNVTANAEKYHQHQGYYGKTLNGKQIGKNAFASGTEGHHHHHH”, the “soluble on expression in E. coli” value is reported as “not soluble”.

Regarding “MSLKRIDRIYMYVKEKTAHLTKAEYDQGVTTQEIAEVLGIQRTNSSKDLNQLVREGKLIKTDGRPVRYIYQTLVTHVKPVTKHVVSYKETPVSEEKNTLQIDTKDIFAKIIGANGSMKNSVEQAKAAILYPPRGLNCLITGPTGSGKTYFAHAMYHFAKAHHVIDEETELIVFNCADYANNPELLMSHLFGYAKGAFTGADEEKMGIIDQADGGMLFLDEIHRLPPEGQEMIFYFMDHGTYSRLGETTKSHEANVRIVGATTEDPGSSLLETFVRRIPINIKLPAFEKRPANEKVDLVKIMIAHEANRTQRKISLTEDVAKALIGSVTYGNIGQLKSNIQLVCARGFLNHMQSPEISITIDDLTEGIRSGLIQLASNRSAMAELSKILEPKITVAPNEGHHHHHH”, the “soluble on expression in E. coli” value was “soluble”.

For the sequence “MSLKRVLAAEYVRMSTEHQKYSLDNQSEYIREYSLRNNITIIHTYNDAGKSGLNISGRPGLKALLDDVINKKITISAILVYDVSRFGRFQDADEAGHYSHLLRKNGVKIIYCAEPFSEEHPEMFMLGLSFSRHGAASYSRNLSEKVFLGQVNLIKRGYHQGGVAGYGLRRLLIDEHEGHHHHHH”, the “soluble on expression in E. coli” value is listed as “not soluble”.

Turning to “MSLKSFNEIIMKVKSKEMKKVAVAVAQDEPVLEAVRDAKKNGIADAILVGDHDEIVSIALKIGMDVNDFEIVNEPNVKKAALKAVELVSTGKADMVMKGLVNTATFLRSVLNKEVGLRTGKTMSHVAVFETEKFDRLLFLTDVAFNTYPELKEKIDIVNNSVKVAHAIGIENPKVAPICAVEVINPKMPSTLDAAMLSKMSDRGQIKGCVVDGPLALDIALSEEAAHHKGVTGEVAGKADIFLMPNIETGNVMYKTLTYTTDSKNGGILVGTSAPVVLTSRADSHETKMNSIALAALVAGNKEGHHHHHH”, the “soluble on expression in E. coli” value is “soluble”.

As for “MSLKSSFYYHRTMLGDKDKYADLKQRITALYHKHKGRYGYRRMTVALKHLGVHHNHKLIAKLMKQLTLSAKIRRQKYRSYKGQQGKIAKNYLKRRFKASKPHKRWLTDITEFKVGDHKLYLSPILDCYNNEIVSYTLSRRPTYDLVSQMLDKALDKTGKHRHKTLMLHSDQGWHYQMKPFREMLKKHQIKQSMSRKGNCLDNALMEGFFGTLKCETIYIEKPKTIEALERQIHEYIHYYNHERIQLKLKGLSPVQYRTQSLKEGHHHHHH”, the “soluble on expression in E. coli” value was “not soluble”.

As to “MSLKTPLKDEVFSFIDLETTGSCPIKHEILEIGAVQVKGGEIINRFETLVKVKSVPDYIAELTGITYEDTLNAPSAHEALQELRLFLGNSVFVAHNANFDYNFLGRYFVEKLHCPLLNLKLCTLDLSKRAILSMRYSLSFLKELLGFGIEVSHRAYADALASYKLFEICLLNLPSYIKTTMDLIDEGHHHHHH”, the “soluble on expression in E. coli” value was “not soluble”.
